Reference: patent US20240131059A1 (FUNDACI INSTITUT D INVESTIGACI BIOM DICA DE BELLVITGE …, published 2024)

Experiments:
[1] = biological target: the molecule itself; experiment: SDS-PAGE under reducing and non-reducing conditions, Coomassie Blue staining and Western blot (self-association into the heptamer)
Description: (§1) For Western blot analysis, PRP-based proteins were resolved on 4-12% gradient SDS-PAGE (NuPAGE Bis-Tris 4-12% Mini Gels, Invitrogen) under reducing and non-reducing conditions and transferred to PVDF membrane. After blocking, the membrane was probed with primary antibodies: 1:2000 dil. polyclonal PK9008 rabbit anti-C4BP (a gift from Anna Blom), and 1:4000 dil. 6×His Monoclonal Antibody (Clontech, Mountain View, CA, USA), followed by the addition of 1:2000 dil. polyclonal Goat Anti-Rabbit IgG HRP (P0448, Dako, Agilent, Santa Clara. CA, USA), and 1:2000 dil. polyclonal Goat Anti-Mouse IgG HRP (P0447, Dako, Agilent, Santa Clara, CA, USA), respectively. Detection was performed with enhanced chemiluminescence (ECL) (Pierce, ThermoFischer, Carlsbad, CA, USA) using ChemiDoc Imager (Bio-Rad, Hercules, CA, USA).
(§2) In this regard, and to assess whether the C4BP CCP6 domain alone as a monomer or, conversely, in an heptavalent oligomerized form analogous to its physiological origin, would preserve the anti-inflammatory and immunomodulatory activities ascribed to PRP-HO7 (Olivar et al. (2013) J. Immunol. 190: 2857-2872). PRP6-HO7 and PRP6-NO were produced in HEK293 cells and were purified from its supernatants (FIG. 3). […]

[2] = biological target: the molecule itself; experiment: SDS-PAGE under non-reducing conditions, Coomassie Blue staining and Western blot (self-association)
Description: as §1, §2

Row | Protein | binding result [1] | binding result [2]
1 | mature recombinant polypeptide forming PRP6-HO7 (single monomer chain, 14.3 kDa) (other, Same chain as in m1; also called PRP6-HO7 monomer chain) HHHHHHLCCPEPKLNNGEITQHRKSRPANHCVYFYGDEISFSCHETSRFSAICQGDGTWSPRTPSCGDETPEGCEQVLTGKRLMQCLPNPEDVKMALEVYKLSLEIEQLELQRDSARQSTLDKEL | binds | 
2 | PRP6-NO, recombinant polypeptide formed by the CCP6 domain of C4BP(β-) fused at its C-terminus to a mutated C4BP(β-) oligomerization domain unable to … (other, Produced in Expi293 cells; Monomer of 12.7 kDa) HHHHHHLCCPEPKLNNGEITQHRKSRPANHCVYFYGDEISFSCHETSRFSAICQGDGTWSPRTPSCGDETPEGAEQVLTGKRLMQALPNPEDVKMALEVYKLSLEIEQLELQ |  | no binding
